T1: Annexin A1 on cancer cells (SNU1, MDA-MB-231) (UniProt P04083 2-346, limits assumed)
T1 construct: whole, on cells; Endogenous protein of cancer cell lines said to overexpress Annexin A1; Assay buffer was HBSS(+) with Ca2+ and Mg2+; also called Annexin A1 on cancer cell surfaces; extracellular portion of Annexin A1 in cancer cells
T1 sequence (looked up): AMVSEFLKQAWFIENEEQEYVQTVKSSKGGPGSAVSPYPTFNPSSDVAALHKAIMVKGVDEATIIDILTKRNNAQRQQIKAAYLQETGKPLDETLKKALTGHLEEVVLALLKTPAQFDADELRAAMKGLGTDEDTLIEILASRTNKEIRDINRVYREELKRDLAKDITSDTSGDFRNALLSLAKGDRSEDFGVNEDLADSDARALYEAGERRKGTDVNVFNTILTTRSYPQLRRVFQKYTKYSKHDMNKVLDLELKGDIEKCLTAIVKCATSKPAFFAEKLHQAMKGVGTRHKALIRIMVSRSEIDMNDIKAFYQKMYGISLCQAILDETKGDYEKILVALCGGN

T2: full-length Annexin A1 protein (346 amino acids; Accession No. NP-000691.1) (human, UniProt P04083 1-346)
T2 construct: Biotinylated for biopanning; coated at 4 ug per well for ELISA
T2 sequence: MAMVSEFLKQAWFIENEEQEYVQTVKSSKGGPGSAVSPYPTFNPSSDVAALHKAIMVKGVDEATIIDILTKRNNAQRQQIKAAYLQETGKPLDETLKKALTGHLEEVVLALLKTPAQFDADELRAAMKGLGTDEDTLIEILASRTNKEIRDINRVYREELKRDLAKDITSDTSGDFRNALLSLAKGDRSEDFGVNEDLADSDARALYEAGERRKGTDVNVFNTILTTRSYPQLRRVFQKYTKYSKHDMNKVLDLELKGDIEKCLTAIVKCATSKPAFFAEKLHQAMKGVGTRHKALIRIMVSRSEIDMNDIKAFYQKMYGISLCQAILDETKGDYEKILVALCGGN

T3: Annexin A1 N-terminal peptide (30 amino acids, biotin conjugated) (biotin conjugated form (position not given))
T3 construct: Synthetic peptide, captured on streptavidin-coated plates for ELISA; also called N-terminal region of Annexin A1; Annexin A1 N-terminus
T3 peptide: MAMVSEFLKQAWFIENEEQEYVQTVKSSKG


Experiments:
[1] = molecular target: T1, Annexin A1 on cancer cells (SNU1, …); assay: cell-based ELISA on SNU1 and MDA-MB-231 cells, 250/125/25 ng scFv per well, anti-HA-HRP
Procedure: The selected Annexin A1-binding scFv was analyzed for binding specificity by cell-based ELISA using the cancer cells SNU1 and MDA-MB-231 in which Annexin A1 is overexpressed.
Briefly, after SNU1 (ATCC) and MDA-MB-231 (ATCC) cancer cells were maintained at 37° C. in RPMI-1640 and DMEM, respectively, under a supply of 5% CO₂, they were seeded at a density of 5×10⁵ cells into 96-well plates (NUNC). Purified proteins from the selected scFv (N32, N33, N43, N46, N48, N314, N36, F2, F4, F5, F6, F8, F10) were added in an amount of 250 ng, 125 ng, or 25 ng to each well, incubated at 4° C. for 90 min, and washed twice with HBSS (+) buffer (Gibco, 14025-092; HBSS containing Ca²⁺ and Mg²⁺; calcium chloride (CaCl₂) 12.6 mM, magnesium chloride 4.9 mM, and magnesium sulfate 4 mM). Thereafter, a 1/200 dilution of an anti-HA-HRP secondary antibody (Santa Cruz), configured to detect an HA tag conjugated to an scFv terminus, was added to in an amount of 50 ul to each well, and incubated for 1 hr. A color was developed for 10 min with the addition of 150 ul of the Super AquaBlue ELISA substrate solution (eBioScience) for the HRP of the secondary antibody. Absorbance was read at 405 nm to determine the binding of scFv to the Annexin A1 on cancer cells.

[2] = molecular target: T2, full-length Annexin A1 protein (346 …); assay: scFv selected by ELISA on plate-coated full-length Annexin A1, anti-HA-HRP detection
[3] = molecular target: T3, Annexin A1 N-terminal peptide (30 amino …); assay: scFv selected by ELISA on biotinylated N-terminal peptide
[4] = molecular target: T3, Annexin A1 N-terminal peptide (30 amino …); assay: scFv selected by ELISA on biotinylated N-terminal peptide on streptavidin plates, anti-HA-HRP detection

binding result [1]	binding result [2]	binding result [3]	binding result [4]	Binder
binds	binds			scFv F10 (scFv) scFv: EVQLLESGGGLVQPGGSLRLSCAASGFTFSDYSMSWVRQAPGKGLEWVSVISPDSSNTYYADSVKGRFTISRDNSKNTLYLQMNSLRAEDTAVYYCAKVTGTCGPRSCYYYDAMDVWGQGTLVTVSSGGGGSGGGGSGGGGSQSVLTQPPSASGTPGQRVTISCSGSSSNIGSNAVSWYQQLPGTAPKLLIYYNSHRPSGVPDRFSGPKSGTSASLAISGLRSEDEADYYCATWDSSLNGYVFGGGTKLTVLG
		binds		scFv N34 (scFv, also called clone C11) scFv: EVQLLESGGGLVQPGGSLRLSCAASGFTFSNYAMSWVRQAPGKGLEWVSAIYPGGGSIYYADSVKGRFTISRDNSKNTLYLQMNSLRAEDTAVYYCARRLQIFDYWGQGTLVTVSSGGGGSGGGGSGGGGSQSVLTQPPSASGTPGQRVTISCTGSSSNIGSNNVTWYQQLPGTAPKLLIYSDSHRPSGVPDRFSGSKSGTSASLAISGLQSEDEADYYCGSWDYSLSAYVFGGGTKLTVLG
binds			binds	scFv N314 (scFv, also called clone G11) scFv: EVQLLESGGGLVQPGGSLRLSCAASGFTFGGYAMSWVRQAPGKGLEWVSGIYPGGGSTYYADSVKGRFTISRDNSKNTLYLQMNSLRAEDTAVYYCARRLTIFDYWGQGTLVTVSSGGGGSGGGGSGGGGSQSVLTQPPSASGTPGQRVTISCSGSSSNIGNNDVTWYQQLPGTAPKLLIYSDSHRPSGVPDRFSGSKSGTSASLAISGLRSEDEADYYCGTWDDSLSGYVFGGGTKLTVLG
binds	binds			scFv F4 (scFv) scFv: EVQLLESGGGLVQPGGSLRLSCAASGFTFSGYYMSWVRQAPGKGLEWVSSISPSGSSIYYADSVKGRFTISRDNSKNTLYLQMNSLRAEDTAVYYCAKGSPGFDYWGQGTLVTVSSGGGGSGGGGSGGGGSQSVLTQPPSASGAPGQRVTISCSGSSFNIGSNDVSWYQQLPGTAPKLLIYSDSHRPSGVPDRFSGSKSGTSASLAISGLQSEDEADYYCGSWDYSLSAYVFGGGTKLTVLG
binds			binds	scFv N43 (scFv) scFv: EVQLLESGGGLVQPGGSLRLSCAASGFTFSDYSMGWVRQAPGRGLEWVSGIYPSGGNTYYADSVKGRFTISRDNSKNTLYLQMNSLRAEDTAVYYCAKRPSRFDYWGQGTLVAVSSGGGGSGGGGSGGGGSQSVLTQPPSASGTPGQRVTISCTGSSSNIGNNDVNWYQQLPGTAPKLLIYSNSHRPSGVPDRFSGSKSGTSASLAISGLRSEDEADYYCGTWDDSLNGYVFGGGTKLTVLG
binds	binds			scFv F8 (scFv, also called clone G3) scFv: EVQLLESGGGLVQPGGSLRLSCAASGFTFSSYSMSWVRQAPGKGLEWVSGISPGSGSIYYADSVKGRFTISRDNSKNTLYLQMNSLRAEDTAVYYCARRIHPFDYWGQGTLVAVSSGGGGSGGGGSGGGGSQSVLTQPPSASGTPGQRVTISCTGSSSNIGNNDVSWYQQLPGTAPKLLIYSDNQRPSGVPGRFSGSKSGTSASLAISGLRSEDEADYYCGAWDSSLNAYVFGGGTKLTVLG
binds	binds			scFv F6 (scFv, also called clone C5) scFv: EVQLLESGGGLVQPGGSLRLSCAASGFTFSNYAMSWVRQAPGKGLEWVSSISSNSGNKYYADSVKGRFTISRDNSKNTLYLQMNSLRAEDTAVYYCAKATLGMDHIHAYSAYGMDVWGQGTLVTVSSGGGGSGGGGSGGGGSQSVLTQPPSASGTPGQRATISCTGSSSNIGSNSVSWYQQLPGTAPKLLIYANSNRPSGVPDRFSGSKSGTSASLAISGLRSEDEADYYCAAWDDSLNAYVFGGGTKLTVLG
binds	binds			scFv F5 (scFv, also called clone B5) scFv: EVQLLESGGGLVQPGGSLRLSCAASGFTFSDYAMSWVRQAPGKGLEWVSGISYGGGNTYYADSVKGRFTISRDNSKNTLYLQMNSLRAEDTAVYYCAKRLGSFDYWGQGTLVTVSSGGGGSGGGGSGGGGSQSVLTQPPSASGTPGRRVTISCTGTSSNIGSNYVSWYRQLPGTAPKLLIYAGNHRPSGVPDRFSGSKSGTSASLAISGLRSEDEADYYCGSWDSSLSAYVFGGGTKLTVLG
binds			binds	scFv N32 (scFv, also called clone C9) scFv: EVQLLESGGGLVQPGGSLRLSCAASGFTFSNYAMSWVRQAPGKGLEWVSGIYPNSGSNTYYADSVKGRFTISRDNSKNTLYLQMNSLRAEDTAVYYCARRPTLFDYWGQGTLVTVGSGGGGSGGGGSGGGGSQSVLTQPPSASGTPGQRVTISCTGSSSNIGSNSVNWYQQLPGTAPKLLIYSDSHRPSGVPDRFSGSKSGTSASLAISGLQSEDEADYYCATWDDSLNGYVFGGGTKLTVLG

— US20150086553A1 (SAMSUNG ELECTRONICS, published 2015)
